Residue numbers refer to the chain shown, from its start. Numbers in names are those of the source. Each block holds one molecule with its values, some of them ahead of it.
Assays:
[1] = Differential scanning fluorimetry (DSF) analysis; assay type: physicochemical; set-up: key to DSF Tm: melting temperature in °C (heated 30-95 °C at 1 °C/min); conditions: for DSF Tm: Table 7A
Procedure: (§1) To conduct the experiment, Sypro Orange (5000×) was diluted in water to 3× and combined with enzymes stored in 50 mM HEPES pH 7.5, 100 mM NaCl, 2 mM EDTA to a final concentration of 5×. Fluorescence was read at 60 second intervals as the reactions were heated at 1° C. per minute from 30-95° C. The change in fluorescence at each minute was calculated and plotted for each temperature in the range.
as §1, with “The luciferase enzyme variants generated were also evaluated using DSF analysis as shown in the representative results provided in Tables 7A and 7B above. To” for “To”, “the experiments,” for “the experiment,”, “in 20” for “in 50”, “7.5, 200” for “7.5, 100”, “NaCl, 1” for “NaCl, 2”

[2] = Brightness of additional luciferase enzyme variants with CS0333; assay type: biochemical; conditions: for Fold-improvement over ATG3707, CS0333 BG / Fold-improvement over ATG3707, CS0333 DR: Table 7A; for Fold-improvement over ATG3707, CS0333 BG / Fold-improvement over ATG3707, CS0333 DR / luminescence CS0333 BG / luminescence CS0333 DR: 1 mM CS0333; for Fold-improvement over ATG3707, CS0333 BG / luminescence CS0333 BG / Fold improvement over ATG3707, CS0333 BG: Bright-Glo buffer; for Fold-improvement over ATG3707, CS0333 DR / luminescence CS0333 DR / Fold improvement over ATG3707, CS0333 DR: Detection Reagent buffer; for luminescence CS0333 BG / luminescence CS0333 DR / Fold improvement over ATG3707, CS0333 BG / Fold improvement over ATG3707, CS0333 DR: Table 7B
Procedure: (§2) Additional luciferase enzyme variants were generated and evaluated for their stability and activity. To evaluate the additional luciferase enzyme variants, 0.005 mg/ml luciferase enzyme variant was mixed with 1 mM ATP+1 mM substrate in either Bright-Glo™ (BG) or Detection Reagent (DR) buffers. […] (Table 7A is colored according to their relative luminescence values within each column across a red to green color spectrum with the lowest values colored red and the highest values colored green.)

[3] = Brightness of additional luciferase enzyme variants with CS0280; assay type: biochemical; conditions: for Fold-improvement over ATG3707, CS0280 BG / Fold-improvement over ATG3707, CS0280 DR: Table 7A; for Fold-improvement over ATG3707, CS0280 BG / Fold-improvement over ATG3707, CS0280 DR / luminescence CS0280 BG / luminescence CS0280 DR: 1 mM CS0280; for Fold-improvement over ATG3707, CS0280 BG / luminescence CS0280 BG / Fold improvement over ATG3707, CS0280 BG: Bright-Glo buffer; for Fold-improvement over ATG3707, CS0280 DR / luminescence CS0280 DR / Fold improvement over ATG3707, CS0280 DR: Detection Reagent buffer; for luminescence CS0280 BG / luminescence CS0280 DR / Fold improvement over ATG3707, CS0280 BG / Fold improvement over ATG3707, CS0280 DR: Table 7B
Procedure: as §2

B1: ATG-2877: SEQ ID NO: 5; H244W (protein)
chain: MADKNILYGPEPFYPLEDGTAGEQMFDALSRYAAIPGCIALTNAHTKENVLYEEFLKLSCRLAESFKKYGLKQNDTIAVCSENSLQFFLPVIASLYLGIIVAPVNDKYIERELIHSLGIVKPRIVFCSKNTFQKVLNVKSKLKSIETIIILDLNEDLGGYQCLNNFISQNSDSNLDVKKFKPYSFNRDDQVASIMFSSGTTGLPKGVMLTHKNIVARFSIAKDPTFGNAINPTSAILTVIPFHWGFGMMTTLGYFTCGFRVVLMHTFEEKLFLQSLQDYKVESTLLVPTLMAFLAKSALVEKYDLSHLKEIASGGAPLSKEIGEMVKKRFKLNFVRQGYGLTETTSAVLITPKGDAKPGSTGKIVPLHAVKVVDPTTGKILGPNEPGELYFKGPMIMKGYYNNEEATKAIIDNDGWLRSGDIAYYDNDGHFYIVDRLKSLIKYKGYQVAPAEIEGILLQHPYIVDAGVTGIPDEAAGELPAAGVVVQTGKYLNEQIVQDYVASQVSTAKWLRGGVKFLDEIPKGSTGKIDRKVLRQMLEKHTNGHHHHHHHH
transition melting temperature by DSF ([1]; compared with Ppe variant (SEQ ID NO: 1), FIG. 29): does not alter the transition melting temperature

B2: C7584F2: SEQ ID NO: 73; H244W+T344A+I396K+S193A+N228D+L305F+S306P+I109V+A344I (protein)
chain: B1 chain with W244H, T344A
DSF Tm [1]: 65
Fold-improvement over ATG3707, CS0333 BG [2]: 2.35
Fold-improvement over ATG3707, CS0333 DR [2]: 2.15
Fold-improvement over ATG3707, CS0280 BG [3]: 2.78
Fold-improvement over ATG3707, CS0280 DR [3]: 2.68

B3: C7579E3: SEQ ID NO: 71; H244W+T344A+I396K+S193A+N228D+L305F+S306P+I109V+Y339M (protein)
chain: B1 chain with W244H, S306P
DSF Tm [1]: 55
Fold-improvement over ATG3707, CS0333 BG [2]: 1.19
Fold-improvement over ATG3707, CS0333 DR [2]: 1.96
Fold-improvement over ATG3707, CS0280 BG [3]: 3.26
Fold-improvement over ATG3707, CS0280 DR [3]: 3.63

B4: C7612E10: SEQ ID NO: 68; H244W+T344A+I396K+S193A+N228D+L305F+S306P+I109V+V348I (protein)
chain: B1 chain with I109V, W244H
DSF Tm [1]: 63
Fold-improvement over ATG3707, CS0333 BG [2]: 2.28
Fold-improvement over ATG3707, CS0333 DR [2]: 2.27
Fold-improvement over ATG3707, CS0280 BG [3]: 2.22
Fold-improvement over ATG3707, CS0280 DR [3]: 2.02

B5: C7573G10: SEQ ID NO: 69; H244W+T344A+I396K+S193A+N228D+L305F+S306P+I109V+A316M (protein)
chain: B1 chain with S193A, W244H
DSF Tm [1]: 62
Fold-improvement over ATG3707, CS0333 BG [2]: 2.81
Fold-improvement over ATG3707, CS0333 DR [2]: 2.09
Fold-improvement over ATG3707, CS0280 BG [3]: 14.12
Fold-improvement over ATG3707, CS0280 DR [3]: 19.49

luminescence CS0333 BG [2]: 15,784,700
luminescence CS0333 DR [2]: 11,887,900
luminescence CS0280 BG [3]: 1,642,120
luminescence CS0280 DR [3]: 83,763
B6: C9644H7: SEQ ID NO: 97; H244W+T344A+I396K+S193A+N228D+L305F+S306P+I109V+C38R+A316W+T342S+V348I (protein)
chain: MADKNILYGPEPFYPLEDGTAGEQMFDALSRYAAIPGRIALTNAHTKENVLYEEFLKLSCRLAESFKKYGLKQNDTIAVCSENSLQFFLPVIASLYLGIIVAPVNDKYVERELIHSLGIVKPRIVFCSKNTFQKVLNVKSKLKSIETIIILDLNEDLGGYQCLNNFISQNSDSNLDVKKFKPYSFNRDDQVAAIMFSSGTTGLPNGVMLTHKNIVARFSIAKDPTFGDAINPTSAILTVIPFHWGFGMMTTLGYFTCGFRVVLMHTFEEKLFLQSLQDYKVESTLLVPTLMAFLAKSALVEKYDFPHLKEIASGGWPLSKEIGEMVKKRFKLNFVRQGYGLSEATSAILITPKGDAKPGSTGKIVPLHAVKVVDPTTGKILGPNEPGELYFKGPMKMKGYYNNEEATKAIIDNDGWLRSGDIAYYDNDGHFYIVDRLKSLIKYKGYQVAPAEIEGILLQHPYIVDAGVTGIPDEAAGELPAAGVVVQTGKYLNEQIVQDYVASQVSTAKWLRGGVKFLDEIPKGSTGKIDRKVLRQMLEKHTNGHHHHHHHH
DSF Tm (° C.) ([1]; Table 7B): 59 °C
Fold improvement over ATG3707, CS0333 BG [2]: 2.97
Fold improvement over ATG3707, CS0333 DR [2]: 2.79
Fold improvement over ATG3707, CS0280 BG [3]: 2.07
Fold improvement over ATG3707, CS0280 DR [3]: 2.87

B7: MK0138: SEQ ID NO: 106; H244W+S193A+N228D+L305F+S306P+I109V+C38R+F55I+Y108F+A316W+Y339M+T3441+I396K (protein)
chain: B6 chain with F55I, K121Q, N205K, Y339M, S342T, A344I
DSF Tm (° C.) ([1]; Table 9B): 58 °C

B8: MK0136: SEQ ID NO: 104; H244W+S193A+N228D+L305F+S306P+I109V+C38R+F55I+Y108F+A316W+Y339M (protein)
chain: B6 chain with F55I, Y108F, N205K, Y339M, A344T, K396I
DSF Tm (° C.) ([1]; Table 9B): 71 °C

luminescence CS0333 BG [2]: 8,464,030
luminescence CS0333 DR [2]: 7,772,660
luminescence CS0280 BG [3]: 11,877,500
luminescence CS0280 DR [3]: 1,439,510
B9: C9671D10: SEQ ID NO: 100; H244W+T344A+I396K+S193A+N228D+L305F+S306P+I109V+C38R+F55I+Y108F+A316W+Y339M+T344I (protein)
chain: B6 chain with F55I, N205K
DSF Tm (° C.) ([1]; Table 7B): 65 °C
Fold improvement over ATG3707, CS0333 BG [2]: 1.59
Fold improvement over ATG3707, CS0333 DR [2]: 1.82
Fold improvement over ATG3707, CS0280 BG [3]: 14.97
Fold improvement over ATG3707, CS0280 DR [3]: 49.24

luminescence CS0333 BG [2]: 12,508,600
luminescence CS0333 DR [2]: 11,647,400
luminescence CS0280 BG [3]: 7,349,470
luminescence CS0280 DR [3]: 984,923
B10: C9679H10: SEQ ID NO: 99; H244W+T344A+I396K+S193A+N228D+L305F+S306P+I109V+A316W+T344I (protein)
chain: B6 chain with F55I, N205K
DSF Tm (° C.) ([1]; Table 7B): 65 °C
Fold improvement over ATG3707, CS0333 BG [2]: 2.35
Fold improvement over ATG3707, CS0333 DR [2]: 2.73
Fold improvement over ATG3707, CS0280 BG [3]: 9.26
Fold improvement over ATG3707, CS0280 DR [3]: 33.69

luminescence CS0333 BG [2]: 13,322,000
luminescence CS0333 DR [2]: 11,733,600
luminescence CS0280 BG [3]: 7,501,350
luminescence CS0280 DR [3]: 891,010
B11: C9649G7: SEQ ID NO: 98; H244W+T344A+I396K+S193A+N228D+L305F+S306P+I109V+C38R+F55I+K121Q+A316W+Y339M+T344I+V348I (protein)
chain: B6 chain with F55I, N205K
DSF Tm (° C.) ([1]; Table 7B): 51 °C
Fold improvement over ATG3707, CS0333 BG [2]: 2.50
Fold improvement over ATG3707, CS0333 DR [2]: 2.75
Fold improvement over ATG3707, CS0280 BG [3]: 9.46
Fold improvement over ATG3707, CS0280 DR [3]: 30.48
